# B1: memAb pertuzumab IgG with pre-bound 5-diphenylalanine-meditope-Alexa-647 (complex)
# VH: EVQLVESGGGLVQPGGSLRLSCAASGFTFTDYTMDWVRQSPGKGLEWVADVNPNSGGSIYNQRFKGRFTLSVDRSKNTLYLQMNSLRAEDTAIYYCARNLGDGFYAMDYWGQGTLVTVSS
# VL: DIQLTQSPVILSASVGDRVTITCRAGESVDIFGVGFLHWYQQRTNGSPRLLIYRASNLESGVPSRFSGSGSRTDFTLTISSLQPEDEADYYCQQTNEDPYTFGAGTKVEIK
# notes: as the heavy chain of Dm25; as the light chain of Dm25; as the peptide Dm26; non-covalent complex; source: IgG: ExpiCHO, purified; peptide: synthetic; copies: + +
# Target: T1, HER2 on BT474 cells (Homo sapiens, BT474 cells, UniProt P04626)
# T1 construct: HER2 (human epidermal growth factor receptor 2) on HER2-overexpressing BT474 breast cancer cells; source: endogenous, on BT474 cells
# Test: flow cytometry on cells; BT474 cells with 1, 10 or 100 nM of the AF647-carrying memAb complex
# Details: one partner purified
binder,measurement,value
B1,binding result,binds

# Source: PMC5910394 (Nature Communications, 2018)
